From patent publication US20250177546A1 (SANYOU BIOPHARMACEUTICALS, published 2025)
Residue numbers refer to the chain shown, from its start.

B1: B31-H1L1 (antibody, human IgG1, kappa, V domains shown)
VH: EVQLVESGGGLVQPGGSLRLSCAASGFTFSRYAMSWVRQTPGKRLEWVASISRGGSTYYPDSVKGRFTISRDNAKNTLYLQMSSLRAEDTAMYYCASYFGNYDAMDYWGQGTTVTVSS
VL: DIQMTQSPSSLSASVGDRVTITCKASQDINNYVSWFQQKPGKAPKTLIYRANRLVDGVPSRFSGSGSGQDYTFTISSLQPEDFATYYCLQFDEFPYTFGGGTKLEIKR
notes: also called B31-HIL1
B2: B31-H2L2 (antibody, human IgG1, kappa, V domains shown)
VH: B1 VH with T40A, R44G, P60A, M92V
VL: B1 VL with T46S, Q69T
B3: B31-H2L3 (antibody, human IgG1, kappa, V domains shown)
VH: B1 VH with T40A, R44G, P60A, M92V
VL: B1 VL with K24R, T46S, D56S, Q69T, Y71F
B4: B31-H3L3 (antibody, human IgG1, kappa, V domains shown)
VH: B1 VH with T40A, R44G, P60A, A74S, S83N, M92V
VL: B1 VL with K24R, T46S, D56S, Q69T, Y71F
B5: B31-H3L4 (antibody, human IgG1, kappa, V domains shown)
VH: B1 VH with T40A, R44G, P60A, A74S, S83N, M92V
VL: B1 VL with K24R, V33L, T46S, V55Q, D56S, Q69T, Y71F, F73L
B6: B31-H3L2 (antibody, human IgG1, kappa, V domains shown)
VH: B1 VH with T40A, R44G, P60A, A74S, S83N, M92V
VL: B1 VL with T46S, Q69T
B7: B31-H4L4 (antibody, human IgG1, kappa, V domains shown)
VH: B1 VH with T40A, R44G, A49S, S50A, P60A, A74S, S83N, M92V
VL: B1 VL with K24R, V33L, T46S, V55Q, D56S, Q69T, Y71F, F73L
B8: B31-H4L2 (antibody, human IgG1, kappa, V domains shown)
VH: B1 VH with T40A, R44G, A49S, S50A, P60A, A74S, S83N, M92V
VL: B1 VL with T46S, Q69T
B9: B31-H4L3 (antibody, human IgG1, kappa, V domains shown)
VH: B1 VH with T40A, R44G, A49S, S50A, P60A, A74S, S83N, M92V
VL: B1 VL with K24R, T46S, D56S, Q69T, Y71F
B10: B62-H3L3 (antibody, human IgG1, kappa)
heavy: not shown
light: DIQMTQSPSSLSASVGDRVTITCVTSIDIDDDVNWYQQKPGKAPKLLISAGNTLRPGVPSRFSGSGSGTDFTFTISSLQPEDIATYYCLQSDNLPYTFGGGTKLEIKRTVAAPSVFIFPPSDEQLKSGTASVVCLLNNFYPREAKVQWKVDNALQSGNSQESVTEQDSKDSTYSLSSTLTLSKADYEKHKVYACEVTHQGLSSPVTKSFNRGEC
B11: B31-H3L3-MMAE (antibody, human IgG1, kappa, V domains shown)
VH: B1 VH with T40A, R44G, P60A, A74S, S83N, M92V
VL: B1 VL with K24R, T46S, D56S, Q69T, Y71F
modifications: MC-VC-PAB-MMAE on cysteine sulfhydryl groups of reduced interchain disulfides; average DAR 3.5 over the whole antibody
notes: conjugated positions not resolved; also called B31-H3L3-MC-VC-PAB-MMAE; B31-MMAE
B12: B62-H3L3-MMAE (antibody, human IgG1, kappa)
heavy: not shown
light: B10 light
modifications: MC-VC-PAB-MMAE on cysteine sulfhydryl groups of reduced interchain disulfides; average DAR 3.5 over the whole antibody
notes: conjugated positions not resolved; also called B62-H3L3-MC-VC-PAB-MMAE

Each binder was assayed against T1, huROR1-His (human ROR1 ECD AA30-406 with C-terminal His tag, made in house) (human, UniProt Q01973 30-406) (assay: ELISA, huROR1-His coated plate, goat anti-human Fc-HRP, OD450).
T1 construct: range 30-406; Expressed in HEK293; also called antigen protein huROR1-His; not shown: C-terminal His tag
T1 sequence (Q01973 30-406 limits assumed): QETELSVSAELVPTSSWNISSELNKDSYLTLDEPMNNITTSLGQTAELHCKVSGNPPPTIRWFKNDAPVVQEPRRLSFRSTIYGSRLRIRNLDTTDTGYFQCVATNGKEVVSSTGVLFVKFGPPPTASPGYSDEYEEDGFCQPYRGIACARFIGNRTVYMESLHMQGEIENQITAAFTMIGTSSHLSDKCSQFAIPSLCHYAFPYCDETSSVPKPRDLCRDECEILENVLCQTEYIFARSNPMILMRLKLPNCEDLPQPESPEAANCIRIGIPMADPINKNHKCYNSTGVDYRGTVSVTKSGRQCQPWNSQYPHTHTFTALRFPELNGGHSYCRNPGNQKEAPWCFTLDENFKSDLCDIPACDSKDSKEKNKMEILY

EC50 | Binder
3.24 ng/mL | B1
4.57 ng/mL | B2
4.29 ng/mL | B3

Target: T1, huROR1-His (human ROR1 ECD AA30-406 …)
Assay: as above
Remark: another data set of the same source

EC50 | Binder
4.6 ng/mL | B4
5.23 ng/mL | B5
3.23 ng/mL | B6

Target: T1, huROR1-His (human ROR1 ECD AA30-406 …)
Assay: as above
Remark: another data set of the same source

EC50 | Binder
17.1 ng/mL | B7
8.12 ng/mL | B8
5.74 ng/mL | B9

Target: T1, huROR1-His (human ROR1 ECD AA30-406 …)
Assay: as above
Remark: another data set of the same source

EC50 | Binder
7.21 ng/mL | B10

These binders were tested against T2, human ROR1 on cells (full-length human ROR1 on huROR1-HEK293 cells; human ROR1 on A549 and HT-29 tumor cells) (human, UniProt Q01973 30-937) (assay: flow cytometry (FACS) on A549 tumor cells, anti-human IgG-Fc secondary antibody, MFI).
T2 construct: whole, on cells; also called hROR1-HEK293T; A549 tumor cells
T2 sequence (Q01973 30-937): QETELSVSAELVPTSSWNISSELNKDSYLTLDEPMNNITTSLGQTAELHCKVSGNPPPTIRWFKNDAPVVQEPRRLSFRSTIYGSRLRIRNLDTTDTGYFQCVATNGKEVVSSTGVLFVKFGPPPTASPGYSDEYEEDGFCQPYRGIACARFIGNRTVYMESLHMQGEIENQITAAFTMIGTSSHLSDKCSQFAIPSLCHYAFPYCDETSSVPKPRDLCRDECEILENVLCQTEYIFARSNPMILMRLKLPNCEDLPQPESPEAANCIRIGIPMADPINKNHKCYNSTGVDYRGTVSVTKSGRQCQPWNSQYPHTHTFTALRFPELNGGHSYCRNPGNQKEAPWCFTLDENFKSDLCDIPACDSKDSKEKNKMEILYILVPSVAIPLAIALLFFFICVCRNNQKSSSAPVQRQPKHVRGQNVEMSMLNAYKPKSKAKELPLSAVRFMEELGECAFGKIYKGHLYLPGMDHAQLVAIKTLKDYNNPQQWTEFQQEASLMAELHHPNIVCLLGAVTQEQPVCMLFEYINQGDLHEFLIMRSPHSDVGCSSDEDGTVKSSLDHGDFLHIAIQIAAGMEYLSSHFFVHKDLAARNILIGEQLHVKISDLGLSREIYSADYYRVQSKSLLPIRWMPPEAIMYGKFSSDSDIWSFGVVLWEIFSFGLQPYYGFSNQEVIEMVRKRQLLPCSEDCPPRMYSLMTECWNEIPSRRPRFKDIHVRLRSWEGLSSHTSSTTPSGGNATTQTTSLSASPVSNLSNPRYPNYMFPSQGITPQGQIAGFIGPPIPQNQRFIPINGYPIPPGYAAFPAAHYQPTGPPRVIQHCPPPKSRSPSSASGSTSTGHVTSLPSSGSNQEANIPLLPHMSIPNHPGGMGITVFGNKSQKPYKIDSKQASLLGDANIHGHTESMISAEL
Description: (§1) The specific method was as follows: A549 cells or HT-29 cells in the logarithmic growth phase were prepared to a single-cell suspension, the density was adjusted to 1×10⁶ cells/mL, 100 µL/well was added to a 96-well round-bottom plate, then centrifuged at 4° C., 300 g, and the supernatant was removed. […] After the incubation, the cell mixture was washed three times and then 100 μL of 1:300 diluted secondary antibody Goat F(ab′)₂ Anti-Human IgG-Fc (abcam, ab98596) was added. The mixture was incubated at 4° C. in the dark for 30 min. After washing three times, the cells were detected by flow cytometry (Beckman, CytoFLEX AOO-1-1102).

EC50 (read off the curve) | Binder
~20 ng/mL | B11
~20 ng/mL | B4
~10 ng/mL | B10
~20 ng/mL | B12

The binders below were run against T2, human ROR1 on cells (full-length human …) (assay: flow cytometry (FACS) on HT29 (HT-29) tumor cells, anti-human IgG-Fc secondary antibody, MFI).
Description: as §1

EC50 (read off the curve) | Binder
~20 ng/mL | B11
~20 ng/mL | B4
~20 ng/mL | B10
~20 ng/mL | B12
